The record followed here is patent US20120142040.

In this data set the test system is H3K4me2-biotin peptide (1ARTKme2QTARKSTGGKAPRKQLYKbiotin).
Target sequence (chain, as listed by the source): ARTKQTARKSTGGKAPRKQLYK

Consider GST-LSD1 (prepared in-house), for which the “shift of the mass spectra after the demethylase assay (MassSQUIRM, MALDI mass spectrometry)” value is on record as “Upon addition of LSD1, we observed a shift of spectra to greater mass, indicating a mixed population of methylation states”.
